In the RNAGym collection of RNA variant scans (doi:10.1093/nar/gkz1192):

B1: CPEB3 Ribozyme (parent)
chain: UAACAGGGGGCCACAGCAGAAGCGUUCACGUCGCAGCCCCUGUCAGAUUCUGGUGAAUCUGCGAAUUCUGCUGUAUAUCUC

Variants of: B1
Assay: self-cleavage, relative activity (ratio to wild type); higher = more cleavage; in vitro, sequencing
Outline: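 After error-prone PCR and barcoding, CPEB3 ribozyme mutant libraries were transcribed with T7 RNA polymerase at 37°C for 5 hours, then given 15 min with DNase I before an EDTA stop, and they cleaved during both steps. Reverse transcription with template switching preceded Illumina sequencing. Relative activity divides a variant's cleaved/total read fraction by the unmutated ribozyme's. At least 5 reads were required per variant, and three batches were averaged.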

Compared with A65U U67A, A65U U67C is higher in self-cleavage: 0.02 for the first, 0.28 for the second.

Going from U66A U72A to U66A U72C, the self-cleavage rises from 0.58 to 0.59.

Going from A65C U66C to G63A U74A, the self-cleavage rises from 0.11 to 0.33.

Compared with G63A U74C, A65G U78C is lower in self-cleavage: 1.21 for the first, 0.42 for the second.

Going from A65G U78G to A65G U78A, the self-cleavage rises from 0.44 to 0.6.

Compared with U66C C81A, U66C C81U is lower in self-cleavage: 0.54 for the first, 0.44 for the second.

Going from U66G U72C to U66G U72A, the self-cleavage falls from 0.61 to 0.24.

First: C62U U76A
Second: C62U U76C
The self-cleavage of the first is lower: 0.25 for the first, 0.33 for the second.

C62U U72C and C62U U72G are the same in self-cleavage: 0.29 for the first, 0.29 for the second.

First: C62U U72A
Second: A65G G70A
The self-cleavage of the first is higher: 0.4 for the first, 0.32 for the second.

Compared with U66C U80G, U66C U80C is lower in self-cleavage: 0.49 for the first, 0.45 for the second.

Compared with U66C U80A, G63U C81U is higher in self-cleavage: 0.48 for the first, 0.99 for the second.

Compared with U66G C68G, U66G C68U is higher in self-cleavage: 0.29 for the first, 0.38 for the second.

Compared with A65U U72A, A65U U72G is higher in self-cleavage: 0.23 for the first, 0.33 for the second.

Going from A65U U72C to A65G U67G, the self-cleavage falls from 0.36 to 0.16.

Going from A65G U67C to A65G U67A, the self-cleavage falls from 0.32 to 0.3.

First: A64G U66A
Second: A64G U66C
The self-cleavage of the first is lower: 0.32 for the first, 0.34 for the second.

Going from A65U U74A to C62U U69A, the self-cleavage falls from 0.44 to 0.38.

First: C62U U69C
Second: A64C G70A
The self-cleavage of the first is lower: 0.32 for the first, 0.33 for the second.

Compared with A65G U69C, A65G U69A is lower in self-cleavage: 0.34 for the first, 0.33 for the second.

Going from A64G U78G to A64G U78C, the self-cleavage falls from 1.11 to 0.77.

Compared with A64G U78A, U66C A75C is lower in self-cleavage: 1.07 for the first, 0.54 for the second.

First: U66C A75G
Second: U66C A75U
The self-cleavage of the first is lower: 0.28 for the first, 0.4 for the second.

First: G63U U76C
Second: G63U U76G
The self-cleavage of the first is lower: 1.12 for the first, 1.17 for the second.

First: G63U U76A
Second: A65G U66A
The self-cleavage of the first is higher: 1.23 for the first, 0.17 for the second.

Compared with A65G U66C, G63C U78A is higher in self-cleavage: 0.27 for the first, 1.01 for the second.

First: U66A U80G
Second: U66A U80A
The self-cleavage of the first is higher: 0.64 for the first, 0.49 for the second.

Going from U66A U80C to A64U U67A, the self-cleavage falls from 0.5 to 0.29.

Compared with A64U U67C, G63U A75G is higher in self-cleavage: 0.32 for the first, 1.14 for the second.

Compared with G63U A75U, G63A U76A is lower in self-cleavage: 1.2 for the first, 0.82 for the second.

Going from A64C U80C to A64G G73U, the self-cleavage rises from 0.38 to 1.35.

First: A64G G73A
Second: U66G U78C
The self-cleavage of the first is higher: 1.24 for the first, 0.41 for the second.

Going from U67A A77G to A64C A65G, the self-cleavage falls from 0.57 to 0.16.

Going from A64C A65U to A64U A77G, the self-cleavage rises from 0.09 to 0.39.

Going from A64U A77U to G63C U67C, the self-cleavage falls from 0.46 to 0.31.

Going from G63C U67A to A64C U74C, the self-cleavage rises from 0.25 to 0.44.

Going from U66A U78C to U66A U78A, the self-cleavage rises from 0.31 to 0.38.

Compared with A65C U72C, A65C U72A is lower in self-cleavage: 0.35 for the first, 0.27 for the second.

Going from G63A A64U to G63A A64C, the self-cleavage falls from 0.54 to 0.42.

First: G63A A64G
Second: A64U U80A
The self-cleavage of the first is higher: 0.6 for the first, 0.37 for the second.

First: A64U U80C
Second: C62U U66A
The self-cleavage of the first is higher: 0.45 for the first, 0.18 for the second.

Compared with C62U U66C, U66A U76C is higher in self-cleavage: 0.26 for the first, 0.57 for the second.

Going from G63A U80C to G63A U80A, the self-cleavage rises from 0.93 to 0.97.

First: U66C U69C
Second: U66C U69G
The self-cleavage of the first is higher: 0.34 for the first, 0.31 for the second.

Going from U66C U69A to A64U U78A, the self-cleavage rises from 0.3 to 0.49.

First: A64U U78C
Second: A64U U78G
The self-cleavage of the first is lower: 0.31 for the first, 0.35 for the second.

Compared with G63A U66C, G63A U66A is lower in self-cleavage: 0.45 for the first, 0.4 for the second.

First: G63A A77G
Second: G63A A77U
The self-cleavage of the first is lower: 0.74 for the first, 0.99 for the second.

First: A65U U69C
Second: A65U U69A
The self-cleavage of the first is higher: 0.45 for the first, 0.3 for the second.

First: G63A U72A
Second: G63A U72G
The self-cleavage of the first is lower: 0.59 for the first, 0.84 for the second.

Compared with G63A U72C, G63C U66C is lower in self-cleavage: 0.91 for the first, 0.37 for the second.

Going from A64U C81A to G63U U80A, the self-cleavage rises from 0.42 to 0.98.

Compared with G63U U80C, G63U U69A is lower in self-cleavage: 1.11 for the first, 0.57 for the second.

Compared with G63A C68U, U66C C71U is lower in self-cleavage: 0.96 for the first, 0.43 for the second.

Compared with U66C C71A, A64G G70C is lower in self-cleavage: 0.25 for the first, 0.21 for the second.

Compared with A64G G70U, A64G G70A is higher in self-cleavage: 0.29 for the first, 0.37 for the second.

Compared with G63A U69A, G63A U69C is higher in self-cleavage: 0.5 for the first, 0.61 for the second.

Going from A64G U76A to A64G U76C, the self-cleavage falls from 0.95 to 0.94.

Compared with U66G, U66C is lower in self-cleavage: 0.48 for the first, 0.44 for the second.

First: U66A
Second: U66C U74C
The self-cleavage of the first is lower: 0.51 for the first, 0.66 for the second.

Going from U66C U74A to A64G U67C, the self-cleavage falls from 0.62 to 0.25.

Going from A64G U67A to A64G U67G, the self-cleavage rises from 0.38 to 0.44.

Going from G63A C81U to A64G C79U, the self-cleavage rises from 1.07 to 1.1.

Going from A64G C79A to U66A A77G, the self-cleavage falls from 0.84 to 0.45.

First: U66A A77U
Second: U66G A75U
The self-cleavage of the first is lower: 0.65 for the first, 0.67 for the second.

Compared with A64U U66C, A64U U66A is lower in self-cleavage: 0.31 for the first, 0.27 for the second.

Compared with A64U U66G, U66C G70A is higher in self-cleavage: 0.13 for the first, 0.35 for the second.

First: U66C G70U
Second: C62U U80C
The self-cleavage of the first is lower: 0.22 for the first, 0.28 for the second.

Compared with C62U U80A, A65G A75U is higher in self-cleavage: 0.3 for the first, 0.41 for the second.

Compared with A65G A75G, U66C C68U is lower in self-cleavage: 0.4 for the first, 0.39 for the second.

Compared with A65U C81A, G63U U66C is lower in self-cleavage: 0.43 for the first, 0.42 for the second.

Compared with U66A G73A, A64U is lower in self-cleavage: 1.04 for the first, 0.32 for the second.

Going from A64G to A64C, the self-cleavage falls from 0.93 to 0.29.

U66C U67G and U66C U67C are the same in self-cleavage: 0.32 for the first, 0.32 for the second.

First: U66C U67A
Second: A64U U69A
The self-cleavage of the first is lower: 0.25 for the first, 0.32 for the second.

Compared with A64U U69G, A64U U69C is lower in self-cleavage: 0.4 for the first, 0.29 for the second.

Going from U66A U67A to U66A U67C, the self-cleavage rises from 0.26 to 0.33.

Going from A64U A75C to A64U A75U, the self-cleavage falls from 0.5 to 0.45.

Going from A64U A75G to U67A, the self-cleavage rises from 0.35 to 0.54.

First: A65G U74C
Second: A65G U74G
The self-cleavage of the first is lower: 0.79 for the first, 0.89 for the second.

A65G U74A and U66A U74C are the same in self-cleavage: 0.86 for the first, 0.86 for the second.

Going from U66A U74A to U66A U74G, the self-cleavage falls from 0.85 to 0.59.

Compared with G63U U67C, G63U U67A is higher in self-cleavage: 0.29 for the first, 0.58 for the second.

For U66A U69A, the self-cleavage was 0.32.
